Article PMC11187062, “Structure of human DPPA3 bound to the UHRF1 PHD finger reveals its functional and structural differences from mouse DPPA3” (Communications Biology, 2024)
Values joined by “and” are separate entries in the source; they are usually repeats but may differ in a detail not shown here. Equal entries are not always repeated.

T1: human UHRF1 PHD finger (residues 299-366) (human, UniProt Q96T88 299-366)
T1 construct: UHRF1 (ubiquitin-like PHD and RING finger domain-containing protein 1), human, PHD finger, residues 299-366; also called hPHD; hUHRF1 PHD finger; source: E. coli, expressed as a GST-fusion protein, purified (glutathione Sepharose 4B, HiTrap Q, Superdex 75)
T1 sequence (looked up): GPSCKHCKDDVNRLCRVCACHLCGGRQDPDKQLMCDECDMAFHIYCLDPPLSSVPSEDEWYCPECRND

T2: human UHRF1 PHD finger, residues 299-366, M332A (human, UniProt Q96T88 299-366, M332A)
T2 construct: UHRF1, human, PHD finger, residues 299-366, with M332A; also called hPHD M332A; source: E. coli, expressed as a GST-fusion protein, purified
T2 sequence (looked up): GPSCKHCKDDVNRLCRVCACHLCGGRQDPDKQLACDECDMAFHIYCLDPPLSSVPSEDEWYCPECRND

T3: human UHRF1 PHD finger, residues 299-366 (human, UniProt Q96T88 299-366)
T3 construct: UHRF1 (ubiquitin-like PHD and RING finger domain-containing protein 1), human, PHD finger, residues 299-366; also called hPHD; hUHRF1 PHD finger; source: E. coli, expressed as a GST-fusion protein, purified (glutathione Sepharose 4B, HiTrap Q, Superdex 75)
T3 sequence (looked up): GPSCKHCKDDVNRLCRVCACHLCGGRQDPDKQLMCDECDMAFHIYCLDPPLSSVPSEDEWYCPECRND

T4: human UHRF1 PHD finger, residues 299–366 (human, UniProt Q96T88 299-366)
T4 construct: UHRF1 (ubiquitin-like PHD and RING finger domain-containing protein 1), human, PHD finger, residues 299-366; 15N- or 13C,15N-labelled for NMR; also called hPHD; hUHRF1 PHD finger; source: E. coli, expressed as a GST-fusion protein, purified (glutathione Sepharose 4B, HiTrap Q, Superdex 75)
T4 sequence (looked up): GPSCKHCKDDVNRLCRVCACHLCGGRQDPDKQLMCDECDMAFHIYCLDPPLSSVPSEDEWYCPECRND

T5: hPHD M332A (human, UniProt Q96T88 299-366, M332A)
T5 construct: UHRF1, human, PHD finger, residues 299-366; also called M332A hPHD mutation; source: E. coli, site-directed mutant of hPHD; purification of the hPHD mutants not described separately
T5 sequence (looked up): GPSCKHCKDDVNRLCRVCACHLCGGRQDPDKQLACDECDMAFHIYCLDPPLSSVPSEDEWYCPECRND


Experiments:
Conditions in all cases: both partners purified
[1] = target: T1, human UHRF1 PHD finger (residues …); test: ITC; Microcal PEAQ-ITC, 293 K, 10 mM HEPES pH 7.5, 150 mM NaCl, 0.25 mM TCEP; one-site model; n = 3
[2] = target: T2, human UHRF1 PHD finger, residues …; test: ITC; Microcal PEAQ-ITC, 293 K, 10 mM HEPES pH 7.5, 150 mM NaCl, 0.25 mM TCEP, one-site model; which partner was titrated is not stated; single titrations and their means
[3] = target: T3, human UHRF1 PHD finger, residues 299-366; test: as above
[4] = target: T4, human UHRF1 PHD finger, residues 299–366; test: SEC-SAXS; 12 mg/ml hPHD:hDPPA3_(81-118) complex on Superdex 200 Increase 5/150 GL, 20 mM Tris-HCl pH 7.5, 150 mM NaCl, 2 mM DTT, 10 µM zinc acetate, 5% glycerol, 20 °C
hPHD M332A = target: T5, hPHD M332A; test: ITC; Microcal PEAQ-ITC, 293 K, 10 mM HEPES pH 7.5, 150 mM NaCl, 0.25 mM TCEP; one-site model; at least three independent titrations
[5] = target: T4, human UHRF1 PHD finger, residues 299–366; test: as above
[6] = target: T1, human UHRF1 PHD finger (residues …); test: ITC; Microcal PEAQ-ITC, 293 K, 10 mM HEPES pH 7.5, 150 mM NaCl, 0.25 mM TCEP; one-site model; n = 3; remark: listed apart in the source
[7] = target: T3, human UHRF1 PHD finger, residues 299-366; test: ITC; Microcal PEAQ-ITC, 293 K, 10 mM HEPES pH 7.5, 150 mM NaCl, 0.25 mM TCEP, one-site model; which partner was titrated is not stated; single titrations and their means; remark: listed apart in the source

Kd [5] [µM] | Kd [7] | Binder | also measured
 |  | SRRGVRTLLSVQREPMARLRYMLLGGVRTHERRPTNKE (peptide, UniProt Q6W0C5 81-118, looked up, also called K95P mutant of hDPPA3; source: bought: Toray Research Center (Tokyo, Japan)) [K95P substituted hDPPA3_(81-118)] | Kd [1]: 1.26 µM
 |  | SRRGVRTLLSVQREKMARLRYMLLGGVRTHERRPTNKE (domain or fragment, also called hDPPA3 WT; source: E. coli BL21 (DE3), His-Ub fusion, purified (Ni Sepharose, YUH1 cleavage, HiTrap SP, Superdex 75)) [human DPPA3, residues 81-118] | Kd [2]: 9.49 µM and 6.15 µM and 8.57 µM; Kd [3]: 0.918 µM and 0.804 µM and 0.921 µM and 0.831 µM
0.868 |  | SRRGVRTLLSVQREKMARLRYMLLGGVRTHERRPTNKE (domain or fragment, Used for SAXS, NMR, CD, ITC and ubiquitination experiments; also called hDPPA3; source: E. coli BL21 (DE3), His-Ub fusion, purified (Ni Sepharose, YUH1 cleavage, HiTrap SP, Superdex 75)) [human DPPA3, residues 81–118 (recombinant)] | stoichiometry N [4]: 1; Kd (hPHD M332A): 8.07 µM
 |  | SRRGVRTLLSVQREKAARARYMLLGGVRTHERRPTNKE (peptide, UniProt Q6W0C5 81-118, looked up, source: E. coli BL21 (DE3), purified (Ni Sepharose, His-Ub removed by YUH1, HiTrap SP, Superdex 75)) [hDPPA3 residues 81-118, M96A/L99A] | Kd [6]: 0.55 µM
 | 0.355 µM and 0.347 µM | SRRGVRTLLSVQREKAARARYMLLGGVRTHERRPTNKE (domain or fragment, UniProt Q6W0C5 81-118, looked up, also called hDPPA3_mutant3_M96AL99A; source: E. coli BL21 (DE3), His-Ub fusion, purified by the same protocol as the wild type) [human DPPA3, residues 81-118, M96A/L99A] | 
 | 0.639 µM and 0.46 µM and 0.552 µM | SRRGVRTLLSVQREKMAALRYALLGGVRTHERRPTNKE (domain or fragment, UniProt Q6W0C5 81-118, looked up, also called hDPPA3_mutant1_R98AM102A; source: E. coli BL21 (DE3), His-Ub fusion, purified by the same protocol as the wild type) [human DPPA3, residues 81-118, R98A/M102A] | 
9.39 |  | SRRGVRTLLSVQPEKMPRLRYMLLGGVRTHERRPTNKE (domain or fragment, human, UniProt Q6W0C5 81-118, looked up, source: E. coli BL21 (DE3), His-Ub fusion, purified by the same protocol as the wild type) [hDPPA3_(81-118) R93P/A97P] | 
> 85 |  | SRRGVAALLSVQREKMARLRYMLLGGVRTHERRPTNKE (domain or fragment, human, UniProt Q6W0C5 81-118, looked up, source: E. coli BL21 (DE3), His-Ub fusion, purified by the same protocol as the wild type) [hDPPA3_(81-118) R86A/T87A] | 
20 |  | SRRGVATLLSVQREKMARLRYMLLGGVRTHERRPTNKE (domain or fragment, human, UniProt Q6W0C5 81-118, looked up, source: E. coli BL21 (DE3), His-Ub fusion, purified by the same protocol as the wild type) [hDPPA3_(81-118) R86A] | 
 |  | SRRGVRTLLSVQREKMAALRYALLGGVRTHERRPTNKE (peptide, UniProt Q6W0C5 81-118, looked up, source: E. coli BL21 (DE3), purified (Ni Sepharose, His-Ub removed by YUH1, HiTrap SP, Superdex 75)) [hDPPA3 residues 81-118, R98A/M102A] | Kd [6]: 0.352 µM
 | 2.89 µM and 1.67 µM and 1.87 µM | SRRGVRTALSAQREKMARLRYMLLGGVRTHERRPTNKE (domain or fragment, UniProt Q6W0C5 81-118, looked up, DPPA3, human, with L88A and V91A; named only in the sheet; also called hDPPA3_mutant2_L88AV91A) [human DPPA3, residues 81-118, L88A/V91A] | 
16.5 |  | SRRGVRALLSVQREKMARLRYMLLGGVRTHERRPTNKE (domain or fragment, human, UniProt Q6W0C5 81-118, looked up, source: E. coli BL21 (DE3), His-Ub fusion, purified by the same protocol as the wild type) [hDPPA3_(81-118) T87A] | 
 | 11.2 µM and 9.62 µM and 7.36 µM | SRRGVRTLLSVQPEKMPRLRYMLLGGVRTHERRPTNKE (domain or fragment, UniProt Q6W0C5 81-118, looked up, also called hDPPA3_mutant4_R93PA97P; source: E. coli BL21 (DE3), His-Ub fusion, purified by the same protocol as the wild type) [human DPPA3, residues 81-118, R93P/A97P] | 
